Measured values published in US20020150536A1 (published 2002).
One block for each binder: values may come before it.

Experiments:
αvβ3 integrin [1] = target: T1, αvβ3 integrin (human, UniProt P06756 31-1048; P05106 27-788); test: competition ELISA, displacement of biotinylated fibrinogen (6 nM) from immobilized αvβ3 (FIG. 4B)
T1 construct: Native detergent-extracted heterodimer, adsorbed to microtiter wells; also called integrin αvβ3; purified human αvβ3
Description: (§1) Briefly, proteins were dialyzed into 0.1 M NaHCO₃, 0.1 M NaCl. N-hydroxysuccinimido-LC-biotin (Pierce) was dissolved at 1 mg/mL in DMSO and added to the protein at a ratio of 0.1 mg biotin per 1 mg protein. The reaction was allowed to rotate at room temperature for 2 hours. Biotinylated proteins were dialyzed into phosphate-buffered saline and their concentrations determined by absorbance at 280 nm. […] Absorbance was read at 405 nm.

αIIbβ3 = target: T2, αIIbβ3 (UniProt P08514 32-1039; P05106 27-788); test: competition ELISA, displacement of biotinylated fibrinogen (6 nM) from immobilized αIIbβ3 (FIG. 4C)
T2 construct: Bought purified protein, adsorbed to microtiter wells; also called integrin αIIbβ3; GPIIbIIIa
Description: An estimate of the maximum absorbance value was determined for each ligand/integrin pair in the absence of competitor. The baseline absorbance value was determined by adding 5 mM EDTA to the incubation buffer.
as §1

αvβ3 integrin [2] = target: T1, αvβ3 integrin; test: competition ELISA, displacement of biotinylated vitronectin (10 nM) from immobilized αvβ3 (FIG. 4A)
Description: as §1

T1 sequence (P06756 31-1048, form in doubt, chain 1 of 2): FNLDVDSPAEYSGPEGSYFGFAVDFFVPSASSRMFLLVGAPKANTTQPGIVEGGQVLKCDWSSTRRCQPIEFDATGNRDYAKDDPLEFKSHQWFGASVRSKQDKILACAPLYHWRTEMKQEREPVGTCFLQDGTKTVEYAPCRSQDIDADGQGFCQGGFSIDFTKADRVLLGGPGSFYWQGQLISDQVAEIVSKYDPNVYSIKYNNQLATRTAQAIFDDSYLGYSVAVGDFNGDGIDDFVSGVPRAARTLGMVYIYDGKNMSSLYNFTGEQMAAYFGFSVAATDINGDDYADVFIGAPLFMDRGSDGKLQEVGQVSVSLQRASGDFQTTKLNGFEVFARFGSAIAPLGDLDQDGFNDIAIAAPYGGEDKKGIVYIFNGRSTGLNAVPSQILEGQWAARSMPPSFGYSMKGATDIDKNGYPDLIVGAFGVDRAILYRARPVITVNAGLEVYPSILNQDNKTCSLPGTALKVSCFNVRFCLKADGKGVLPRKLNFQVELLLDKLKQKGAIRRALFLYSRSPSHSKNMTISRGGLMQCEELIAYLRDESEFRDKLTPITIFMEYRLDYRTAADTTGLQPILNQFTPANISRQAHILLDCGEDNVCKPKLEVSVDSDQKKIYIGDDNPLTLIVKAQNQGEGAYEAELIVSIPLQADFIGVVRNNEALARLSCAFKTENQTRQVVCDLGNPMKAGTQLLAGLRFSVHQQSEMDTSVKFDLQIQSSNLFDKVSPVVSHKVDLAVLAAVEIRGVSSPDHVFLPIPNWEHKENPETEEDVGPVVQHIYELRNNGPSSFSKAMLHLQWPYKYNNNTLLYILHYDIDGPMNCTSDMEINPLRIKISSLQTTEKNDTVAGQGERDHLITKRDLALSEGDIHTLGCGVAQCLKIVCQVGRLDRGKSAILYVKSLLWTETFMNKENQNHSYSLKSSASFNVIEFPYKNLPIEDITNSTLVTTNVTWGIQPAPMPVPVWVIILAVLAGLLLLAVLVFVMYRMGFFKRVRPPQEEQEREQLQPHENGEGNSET
T1 sequence (P05106 27-788, form in doubt, chain 2 of 2): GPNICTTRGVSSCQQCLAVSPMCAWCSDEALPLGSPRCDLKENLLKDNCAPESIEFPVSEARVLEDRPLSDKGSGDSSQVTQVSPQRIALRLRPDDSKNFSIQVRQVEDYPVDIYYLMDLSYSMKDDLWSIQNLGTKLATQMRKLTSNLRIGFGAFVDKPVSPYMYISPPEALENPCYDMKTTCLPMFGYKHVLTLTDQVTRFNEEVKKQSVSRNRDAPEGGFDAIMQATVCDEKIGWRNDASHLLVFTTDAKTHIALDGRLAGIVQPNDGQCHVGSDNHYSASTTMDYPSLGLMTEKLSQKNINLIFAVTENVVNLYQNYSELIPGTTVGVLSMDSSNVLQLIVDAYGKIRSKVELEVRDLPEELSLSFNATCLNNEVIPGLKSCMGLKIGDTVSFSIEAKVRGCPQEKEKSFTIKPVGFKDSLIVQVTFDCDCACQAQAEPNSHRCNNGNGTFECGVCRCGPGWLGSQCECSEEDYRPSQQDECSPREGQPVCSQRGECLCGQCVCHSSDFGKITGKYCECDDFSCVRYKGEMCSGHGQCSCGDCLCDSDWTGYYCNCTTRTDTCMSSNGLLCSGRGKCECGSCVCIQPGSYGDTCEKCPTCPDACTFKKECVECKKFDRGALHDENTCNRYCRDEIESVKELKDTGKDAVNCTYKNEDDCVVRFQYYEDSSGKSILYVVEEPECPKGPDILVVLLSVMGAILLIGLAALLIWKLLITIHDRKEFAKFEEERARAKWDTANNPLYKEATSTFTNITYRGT

- IC50 (αvβ3 integrin [1]): 43 nM
- IC50 (αIIbβ3): 15 nM
B1: Fibrinogen (ligand)
chain 1: ADSGEGDFLAEGGGVRGPRVVERHQSACKDSDWPFCSDEDWNYKCPSGCRMKGLIDEVNQDFTNRINKLKNSLFEYQKNNKDSHSLTTNIMEILRGDFSSANNRDNTYNRVSEDLRSRIEVLKRKVIEKVQHIQLLQKNVRAQLVDMKRLEVDIDIKIRSCRGSCSRALAREVDLKDYEDQQKQLEQVIAKDLLPSRDRQHLPLIKMKPVPDLVPGNFKSQLQKVPPEWKALTDMPQMRMELERPGGNEITRGGSTSYGTGSETESPRNPSSAGSWNSGSSGPGSTGNRNPGSSGTGGTATWKPGSSGPGSTGSWNSGSSGTGSTGNQNPGSPRPGSTGTWNPGSSERGSAGHWTSESSVSGSTGQWHSESGSFRPDSPGSGNARPNNPDWGTFEEVSGNVSPGTRREYHTEKLVTSKGDKELRTGKEKVTSGSTTTTRRSCSKTVTKTVIGPDGHKEVTKEVVTSEDGSDCPEAMDLGTLSGIGTLDGFRHRHPDEAAFFDTASTGKTFPGFFSPMLGEFVSETESRGSESGIFTNTKESSSHHPGIAEFPSRGKSSSYSKQFTSSTSYNRGDSTFESKSYKMADEAGSEADHEGTHSTKRGHAKSRPV
chain 2: QGVNDNEEGFFSARGHRPLDKKREEAPSLRPAPPPISGGGYRARPAKAAATQKKVERKAPDAGGCLHADPDLGVLCPTGCQLQEALLQQERPIRNSVDELNNNVEAVSQTSSSSFQYMYLLKDLWQKRQKQVKDNENVVNEYSSELEKHQLYIDETVNSNIPTNLRVLRSILENLRSKIQKLESDVSAQMEYCRTPCTVSCNIPVVSGKECEEIIRKGGETSEMYLIQPDSSVKPYRVYCDMNTENGGWTVIQNRQDGSVDFGRKWDPYKQGFGNVATNTDGKNYCGLPGEYWLGNDKISQLTRMGPTELLIEMEDWKGDKVKAHYGGFTVQNEANKYQISVNKYRGTAGNALMDGASQLMGENRTMTIHNGMFFSTYDRDNDGWLTSDPRKQCSKEDGGGWWYNRCHAANPNGRYYWGGQYTWDMAKHGTDDGVVWMNWKGSWYSMRKMSMKIRPFFPQQ
chain 3: YVATRDNCCILDERFGSYCPTTCGIADFLSTYQTKVDKDLQSLEDILHQVENKTSEVKQLIKAIQLTYNPDESSKPNMIDAATLKSRKMLEEIMKYEASILTHDSSIRYLQEIYNSNNQKIVNLKEKVAQLEAQCQEPCKDTVQIHDITGKDCQDIANKGAKQSGLYFIKPLKANQQFLVYCEIDGSGNGWTVFQKRLDGSVDFKKNWIQYKEGFGHLSPTGTTEFWLGNEKIHLISTQSAIPYALRVELEDWNGRTSTADYAMFKVGPEADKYRLTYAYFAGGDAGDAFDGFDFGDDPSDKFFTSHNGMQFSTWDNDNDKFEGNCAEQDGSGWWMNKCHAGHLNGVYYQGGTYSKASTPNGYDNGIIWATWKTRWYSMKKTTMKIIPFNRLTIGEGQQHHLGGAKQAGDV
notes: also called biotinylated fibrinogen; unmodified fibrinogen

- IC50 (αvβ3 integrin [2]): 59 nM
B2: Vitronectin (ligand, human, UniProt P04004 20-478, looked up)
chain: DQESCKGRCTEGFNVDKKCQCDELCSYYQSCCTDYTAECKPQVTRGDVFTMPEDEYTVYDDGEEKNNATVHEQVGGPSLTSDLQAQSKGNPEQTPVLKPEEEAPAPEVGASKPEGIDSRPETLHPGRPQPPAEEELCSGKPFDAFTDLKNGSLFAFRGQYCYELDEKAVRPGYPKLIRDVWGIEGPIDAAFTRINCQGKTYLFKGSQYWRFEDGVLDPDYPRNISDGFDGIPDNVDAALALPAHSYSGRERVYFFKGKQYWEYQFQHQPSQEECEGSSLSAVFEHFAMMQRDSWEDIFELLFWGRTSAGTRQPQFISRDWHGVPGQVDAAMAGRIYISGMAPRPSLAKKQRFRHRNRKGYRSQRGHSRGRNQNSRRPSRATWLSLFSSEESNLGANNYDDYRMDWLVPATCEPIQSVFFFSGDKYYRVNLRTRRVDTVDPPYPRSIAQYWLGCPAPGHL
notes: also called biotinylated vitronectin; unmodified vitronectin
